Source: paper doi:10.1101/2025.03.31.646278

Molecular target: HPV16 L1 pentamer (deletion construct of the major capsid protein L1) (human papillomavirus type 16)
Assay: cryo-EM structure

For “HPV16 L1 pentamer (deletion construct of the major capsid protein L1) (domain or fragment)”, which stoichiometry N (protomers per pentamer) is on record?
The stoichiometry N (protomers per pentamer) was 5.
